Read-outs that look alike come from different tables or passages of the source.
Assays:
[1] = test system: αvβ3 integrin positive M21 and αvβ3 integrin negative M21-L tumor xenografts; design: species or system BALB/c nude mice; details: mouse, in vivo, iv, 1 h
Experimental: (§1) For the evaluation of biodistribution, four healthy female BALB/c mice (Charles River Laboratories, Sulzfeld, GER) were intravenously injected with [^89Zr]TAFC (∼1.5 MBq/mouse, ∼4 μg of precursor) into the tail vein and sacrificed at 6 h postinjection (p.i.). For the evaluation of tumor uptake of [^89Zr]FSC(succ-RGD)3 female, athymic BALB/c nude mice (Charles River Laboratories) were used. For the induction of tumor xenografts mice were injected subcutaneously with 5 × 10^6 αvβ3 integrin positive M21 cells into the right hind limb and with 5 × 10^6 αvβ3 integrin negative M21-L cells (negative control) into the left hind limb of the same mouse (n = 4). The tumors were allowed to grow until they had reached a volume of 0.3 to 0.6 cm^3. On the day of the experiment [^89Zr]FSC(succ-RGD)3 (∼0.5 MBq/mouse, ∼0.5 μg of peptide) was intravenously injected in the lateral tail vein. Mice were sacrificed by cervical dislocation at 1, 2, and 4 h after injection. Organs (spleen, pancreas, stomach, intestine, kidney, liver, heart, and lung), blood, muscle tissue, bone, and tumors were dissected and weighted. As a comparison, four tumor-bearing mice were intravenously injected in the tail vein with [^68Ga]FSC(succ-RGD)3 (∼0.5 MBq/mouse, ∼0.5 μg of precursor) and sacrificed at 1 h p.i. Activity of the different samples was measured in the gamma counter. Results were expressed as percentage of injected dose per gram tissue (% ID/g).

[2] = pH 7.4
[3] = test system: M21 cells (αvβ3 integrin positive); assay: Internalization assay; format: cell-based, human; details: 37 °C, 90 min, total series
Experimental: M21 cells (αvβ3 integrin positive) were diluted with RPMI 1640 (Gibco, Invitrogen Corporation, Paisley, UK) containing 1% glutamine (m/v), 1% bovine serum albumin (BSA) (m/v), CaCl2 (1 mM), MgCl2 (1 mM), and MnCl2 (10 mM) to a concentration of 2.0 × 10^6 cells/mL. Aliquots of 1 mL cell solution were transferred to Eppendorf tubes for incubation at 37 °C for 1 h. After addition of [^89Zr]FSC(RGDfE)3, [^89Zr]FSC(succ-RGD)3, or [^89Zr]FSC(Mal-RGD)3 (approximately 1.5 × 10^6 cpm), the cells were incubated in triplicates with either PBS with 0.5% BSA (150 μL, total series) or with 10 μM c(RGDyV) in PBS/0.5% BSA (150 μL, nonspecific series) at 37 °C for 90 min. After the incubation time the tubes were centrifuged, and incubation was stopped by removal of the medium. Then the cells were washed twice with ice-cold TRIS-buffered saline. Subsequently, the cells were incubated two times in acid wash buffer (20 mM acetate buffer, pH 4.5) at 37 °C for 5 min. Then the tubes were centrifuged, and the supernatant was collected in plastic vials (membrane bound activity). In a last step the cells were lysed by addition of 2 M NaOH, and the radioactivity associated with cells was collected in plastic vials (internalized radioligand fraction). Protein content in the NaOH fraction was determined using a spectrometric method (Bradford assay). The internalized activity was calculated and expressed as percentage of total activity per milligram protein.

[4] = design: species or system BALB/c nude mice; details: mouse, in vivo, iv
Experimental: as §1

[5] = test system: αvβ3 integrin positive M21 and αvβ3 integrin negative M21-L tumor xenografts; format: in vivo, BALB/c nude mice; details: ~5 MBq/mouse i.v., monitoring period of 24 h
Experimental: MicroPET/CT imaging experiments were conducted on an Inveon microPET/CT scanner (Siemens Preclinical Solutions, Knoxville, USA). A group of four M21-tumor xenograft bearing BALB/c nude mice were administered with [^89Zr]FSC(succ-RGD)3 (∼5 MBq/mouse, ∼5 μg of peptide) via intravenous tail vein injection. MicroPET images were acquired under general anesthesia (isoflurane/O2) for 20 min. PET data for each mouse were recorded via static scans at 1, 4, and 24 h p.i. The microPET scans were reconstructed with Inveon Acquisition Workplace software (version 1.5; Siemens Preclinical Solutions), using a 3-dimensional fast maximum a posteriori algorithm with the following parameters: matrix, 256 × 256 × 161; pixel size, 0.4 × 0.4 × 0.8 mm; β-value of 1.5 mm resolution with uniform variance.

[6] = Stability assay in 1000-fold molar excess of EDTA solution (ITLC); format: physicochemical; details: competitor EDTA 1000-fold excess, 37 °C, n = 3
Experimental: Determination of the stability of [^89Zr]DFO, [^89Zr]TAFC, and [^89Zr]FSC-RGD conjugates was carried out by incubating the radioligands in PBS, 1000-fold molar excess of EDTA solution with different pH (pH 7 and pH 6; radioligand vs EDTA: 25 μM vs 25 mM) as well as in human serum for 7 days at 37 °C, respectively. At selected time points three aliquots of PBS and EDTA solution were analyzed directly via ITLC, while the three serum aliquots were mixed with 500 μL of CH3CN, vortexed, and centrifuged at 20,000 rcf for 2 min prior to analysis.

[7] = uptake in αvβ3 integrin positive M21 tumor

SMILES: C/C1=C/C(=O)N(O)CCC[C@H](NC(=O)CCC(=O)NCCCC[C@@H]2NC(=O)[C@@H](Cc3ccccc3)NC(=O)[C@H](CC(=O)O)NC(=O)CNC(=O)[C@H](CCCNC(=N)N)NC2=O)C(=O)OCC/C(C)=C\C(=O)N(O)CCC[C@H](NC(=O)CCC(=O)NCCCC[C@@H]2NC(=O)[C@@H](Cc3ccccc3)NC(=O)[C@H](CC(=O)O)NC(=O)CNC(=O)[C@H](CCCNC(=N)N)NC2=O)C(=O)OCC/C(C)=C\C(=O)N(O)CCC[C@H](NC(=O)CCC(=O)NCCCC[C@@H]2NC(=O)[C@@H](Cc3ccccc3)NC(=O)[C@H](CC(=O)O)NC(=O)CNC(=O)[C@H](CCCNC(=N)N)NC2=O)C(=O)OCC1 [[^68Ga]FSC(succ-RGD)3] [metal not drawn, reference compound]
- blood activity [1]: 0.63 ± 0.26 % ID/g
- uptake in the spleen [1]: 3.27 ± 0.64 % ID/g
- uptake in αvβ3 integrin negative M21-L tumors [1]: 1.10 ± 0.30 % ID/g

SMILES: C/C1=C/C(=O)N(O)CCC[C@H](NC(=O)CCN2C(=O)CC(SCCOCCOCCOCCOCCC(=O)NCCCC[C@@H]3NC(=O)[C@@H](Cc4ccccc4)NC(=O)[C@H](CC(=O)O)NC(=O)CNC(=O)[C@H](CCCNC(=N)N)NC3=O)C2=O)C(=O)OCC/C(C)=C\C(=O)N(O)CCC[C@H](NC(=O)CCN2C(=O)CC(SCCOCCOCCOCCOCCC(=O)NCCCC[C@@H]3NC(=O)[C@@H](Cc4ccccc4)NC(=O)[C@H](CC(=O)O)NC(=O)CNC(=O)[C@H](CCCNC(=N)N)NC3=O)C2=O)C(=O)OCC/C(C)=C\C(=O)N(O)CCC[C@H](NC(=O)CCN2C(=O)CC(SCCOCCOCCOCCOCCC(=O)NCCCC[C@@H]3NC(=O)[C@@H](Cc4ccccc4)NC(=O)[C@H](CC(=O)O)NC(=O)CNC(=O)[C@H](CCCNC(=N)N)NC3=O)C2=O)C(=O)OCC1 (stereo partly shown) [[^89Zr]FSC(Mal-RGD)3, metal not drawn]
- logD [2]: -2.9
- internalized activity, % of total activity per milligram protein [3]: 1.6 ± 0.1 % cpm/mg

SMILES: C/C1=C/C(=O)N(O)CCC[C@H](NC(=O)CC[C@@H]2NC(=O)[C@@H](Cc3ccccc3)NC(=O)[C@H](CC(=O)O)NC(=O)CNC(=O)[C@H](CCCNC(=N)N)NC2=O)C(=O)OCC/C(C)=C\C(=O)N(O)CCC[C@H](NC(=O)CC[C@@H]2NC(=O)[C@@H](Cc3ccccc3)NC(=O)[C@H](CC(=O)O)NC(=O)CNC(=O)[C@H](CCCNC(=N)N)NC2=O)C(=O)OCC/C(C)=C\C(=O)N(O)CCC[C@H](NC(=O)CC[C@@H]2NC(=O)[C@@H](Cc3ccccc3)NC(=O)[C@H](CC(=O)O)NC(=O)CNC(=O)[C@H](CCCNC(=N)N)NC2=O)C(=O)OCC1 [[^89Zr]FSC(RGDfE)3, metal not drawn]
- logD [2]: -3
- internalized activity, % of total activity per milligram protein [3]: 2.3 ± 0.3 % cpm/mg

SMILES: C/C1=C/C(=O)N(O)CCC[C@H](NC(=O)CCC(=O)NCCCC[C@@H]2NC(=O)[C@@H](Cc3ccccc3)NC(=O)[C@H](CC(=O)O)NC(=O)CNC(=O)[C@H](CCCNC(=N)N)NC2=O)C(=O)OCC/C(C)=C\C(=O)N(O)CCC[C@H](NC(=O)CCC(=O)NCCCC[C@@H]2NC(=O)[C@@H](Cc3ccccc3)NC(=O)[C@H](CC(=O)O)NC(=O)CNC(=O)[C@H](CCCNC(=N)N)NC2=O)C(=O)OCC/C(C)=C\C(=O)N(O)CCC[C@H](NC(=O)CCC(=O)NCCCC[C@@H]2NC(=O)[C@@H](Cc3ccccc3)NC(=O)[C@H](CC(=O)O)NC(=O)CNC(=O)[C@H](CCCNC(=N)N)NC2=O)C(=O)OCC1 [[^89Zr]FSC(succ-RGD)3, metal not drawn]
- tissue uptake at 1 h ([4]; activity in kidneys): 6.42 ± 0.72 %ID/g
- tissue uptake at 2 h ([4]; activity in kidneys): 5.77 ± 0.2 %ID/g
- tissue uptake at 4 h ([4]; activity in kidneys): 5.26 ± 0.9 %ID/g
- tissue uptake at 1 h ([4]; activity in the bone): 0.71 ± 0.05 %ID/g
- tissue uptake at 2 h ([4]; activity in the bone): 0.79 ± 0.28 %ID/g
- tissue uptake at 4 h ([4]; activity in the bone): 0.73 ± 0.27 %ID/g
- tissue uptake at 2 h ([4]; blood activity): 0.15 %ID/g
- tissue uptake at 4 h ([4]; blood activity): 0.1 ± 0.01 %ID/g
- tissue uptake at 1 h ([4]; uptake in the spleen): 1.78 ± 0.22 %ID/g
- tissue uptake at 4 h ([4]; uptake in αvβ3 integrin negative M21-L tumors): 0.5 %ID/g
- tissue uptake at 1 h [4, 7]: 2.83 ± 0.6 %ID/g
- tissue uptake at 2 h [4, 7]: 3.48 ± 0.45 %ID/g
- tissue uptake at 4 h [4, 7]: 2.86 ± 0.3 %ID/g
- logD [2]: -2.9

SMILES: C/C1=C/C(=O)N(O)CCC[C@H](NC(=O)CCC(=O)NCCCC[C@@H]2NC(=O)[C@@H](Cc3ccccc3)NC(=O)[C@H](CC(=O)O)NC(=O)CNC(=O)[C@H](CCCNC(=N)N)NC2=O)C(=O)OCC/C(C)=C\C(=O)N(O)CCC[C@H](NC(=O)CCC(=O)NCCCC[C@@H]2NC(=O)[C@@H](Cc3ccccc3)NC(=O)[C@H](CC(=O)O)NC(=O)CNC(=O)[C@H](CCCNC(=N)N)NC2=O)C(=O)OCC/C(C)=C\C(=O)N(O)CCC[C@H](NC(=O)CCC(=O)NCCCC[C@@H]2NC(=O)[C@@H](Cc3ccccc3)NC(=O)[C@H](CC(=O)O)NC(=O)CNC(=O)[C@H](CCCNC(=N)N)NC2=O)C(=O)OCC1 [[^89Zr]FSC(succ-RGD)3] [metal not drawn]
- blood activity [1]: 0.16 ± 0.04 % ID/g
- uptake in αvβ3 integrin negative M21-L tumors in microPET/CT [5]: no uptake
- visualization of αvβ3 integrin positive M21 tumors in microPET/CT [5]: clearly visualized over the whole monitoring period of 24 h
- % intact starting species by incubation time ([6]; pH 7, 1 h): 98.2 ± 0.1%
- % intact starting species by incubation time ([6]; pH 7, 4 h): 98.2 ± 0.1%
- % intact starting species by incubation time ([6]; pH 7, 1 d): 96.5 ± 0.5%
- % intact starting species by incubation time ([6]; pH 7, 3 d): 96.0 ± 0.4%
- % intact starting species by incubation time ([6]; pH 7, 5 d): 94.5 ± 0.3%
- % intact starting species by incubation time ([6]; pH 7, 7 d): 93.9 ± 0.7%
- internalized activity, % of total activity per milligram protein [3]: 2.1 ± 0.3 % cpm/mg

Source: article PMC4453016, “Novel Bifunctional Cyclic Chelator for ^89Zr Labeling–Radiolabeling and Targeting Properties of RGD Conjugates” (Molecular Pharmaceutics, 2015)
